In the DeepSol protein solubility set:

assay: soluble on expression in E. coli; label from the status in PepcDB or PDB records

Soluble on expression in E. coli, not soluble:
MGSDKIHHHHHHMQIYLANPRGFCAGVDRAIAIVNEALLRFEPPIYVRHEVVHNKFVVSDLANRGAVFVEELHEVPDGSIVIFSAHGVSKAVEDEAERRDLTVFDATCPLVTKVHIEVAKFAQDGMDAVLIGHAGHPEVEGTMGRFNHRHGGRIHLVENESDVEALSVQDAERLAFVTQTTLSMDDTARVIDALREKFPHIQGPRKDDICYATQNRQDAVKHLASRCEVVLVVGSPNSSNSNRLRELAERMNCRAYLIDNATEMDINWFDGIQSVGVTAGASAPEVLIQEVLQQLQDWGGDLPSELSGIEENVTFSLPKALRIPMTQVGK
MGSDKIHHHHHHMQKHNIKRDCCKLLYLLICNSLFYRRSIMGVKVVKDLVYSYIEIDESVQKLIDTASFQRLKRIKQLSSSYIFPSTNHTRYEHSIGVMHLACNFFEVLEKDFRKYGLTEDRISYLRLHIKLAGLLHDVGHPPFSHLGEKFLDKNEIIACIKNEYSHLVDVDKTFYNNGRLIGKEHELLSCYCILRKFYKILKEEIDKNIDVAFICRCIIGNTYPDSENWDKNICVRIISSDSIDVDKLDYLTRDNHMTGEIAPKMDIKRLLACLTITENKELKYVAKAIPAVQTVVDSRDILYLWVYHHHISIYTDYIIGRILKRCMTLYDEHRGQALEEMNREEYFSPKAITDYLITDDDIYSHLRKIYVLSLEGKVDDFNTIIIKQIFERDFLKPLWKTIYEYKDFEKNLVDKKIIKSYDELEDILKNEKNIEDITNTLLKKLNLKEGEVFIITKYNKFYNSNKEAPISLLLNGEERKLSDLLPQKEFGKFHTMAFFVFVPKKYKKEAKEIVIEELQKISQT
MGSDKIHHHHHHMQLEVMEHYGIIKYFRDADYFETEHQRRIFNQLKKVIPEGQLIALSGVVGSGKTTTLSRLQDLLAKEKKVIVAKSLSVEKTKTNLGTLITALFYDVSGDKDYRVPKLGEKRERELRDLIQDVKKPVVLLVDEAHDLHHRTLTGLKRLMEVIRDGGGKLSILLAGHPKLKNDLKGPTMEEVGYRTIVVSLDAMQGNLREYVYWLLDNCTDDKTKPTDVIEEQAIDYLVERLTTPLQIEQHLSLALEEGFNVGVKPITVDVLDLTLSRRINDIEPRLIRHGYSEKVLVDQFHYKPAELRKFFKGELDANRVKEITQDLREAGLPI
MGSDKIHHHHHHMQLLEFPNIAIIAGENAVPVAQLPLVWQDIAKGTANVGLCNPQIYVEMAQLFLYKLEQGDVDLFNERPELAHLKSSFCQLFGQLGRETLEFYGYDFMTHNYPNFEEILREVESKDADYGKVARIGLELFQEFGYELPASFYHVHLAPIYRDHVFEERALRFDKRDIEHKRSWDAILHAGKVFAVQMKVQSIASKYGFTYQHGCGCNSHLSSIDESRGTFAYELSQEKRDRWIRSFIWTAWYEYAFFPIVPNTSYLV
MGSDKIHHHHHHMQNIVDNTLLLSYLNNEYIKKLFQQFNHPFKILRYEAKETVLHEGEMIDGLYIQMSGRTKITSSVITGKALLLRFCSAVSIMGDIELIQSVNIQSHVTSEQQTDFLFIDKNYVTSYLLQDVIFLQELIHHVTYKLQTCTTASRINLLASVETRFASYLCTARNPSNLFGREIHTKDHHEIASLIGTTTRHLNRVIEKLIANNIMHKNNKQIVVDDWKAIDTLSNGLRYE
MGSDKIHHHHHHMQNVGLVMGKSSITDFSFAVNPSAIPKFGEYVTAINRDGEEVIGIVREISNFNRMILDEGFSFEYLVKNLDFSRRLIEKNDVIVATATVIGVVKDGEVYPNRTPIKPNSEVFLADDDVLSSLFKCDRGVELGRMIARPDISVSLDIKQLVLRHFAILSVTGGGKSNTVAVLVNDIVKKLNGTVVLIDPHGEYVGYTFEDGSERGKNVVPAGIRPERLEPWEFASLVGVDREKAAVQRMHLERIFTTVRHEGKAGREFVERVLDIAEEWINIAAGKGEAEYYDFNGIKRVATLDRQDLNALARIKEYVSSFMRRYEDLLSQNDMLANIKPSYLNVVNLSGFDEGQMRVVVAYLLRNLLVGRINYVRGKKGWEKICPAIVKPLLVIFEEGHIFAPKGVNNDVVSWMGRIAREGRKFGIGLGIVSQRPKRLNDDVLSQCNTKIILRITEPNDQRYVQHASEQISEDLLKDIASLGVGEAVVVGPAVKLPVAVKIRKFAGNYGGRDIDVVEEWLGREEEQKKQVTLEDLAV
MGSDKIHHHHHHMQPEFNRPEFLEGNSAEEIHERMMNNLPDDIDDMPGGFPYDMTMPAALEKDEIINFHIVRALMIAFPEYAWDEWLDLHGRQVHLTRHEAEPAFGYVKITAAEGTEILSGTVFCTAATETGPSIEYATTEDVVVGGEGSVLIPVSAVEAGTGSNVAANTVVLMMVPDKNVTEINNPEPIRGGTERETDDDFYDRIAAEYDNSMTYLGNDTDYKRWAKQAGAGDAIVISTWNGPGTVKLVLVDGNGKPANAKLVQDVYNYIVSPNDRSARLLPTGTAELTCAAATTVAVNYVIAGLSYDETTGIEQIKADFTEAVRAVYAQAKTEGVLRYNDVRPLISAIAGVEDFETFTMNGKMQNITLKSEEYPDTGTLNFS
MGSDKIHHHHHHMQQLTKPKKIAIIGAGFRGITAAKIFQDAGIEFVILDKNDATGGVWRTFANQSSYVQIPEPEYRFDMDYPNGLPSEFTPRDEILAHAERFINVHGIGKHIIFKSEVFSIEDISDSKYRVYYKHDNANKSLEVDGIYYAGGRLHKRRTVHFPGEKNFQGLIRYGISDDMPISEYRGKKVAIIGCGAFAMENARTALLNGATHVTIIAKTINIVLPRMVMFWLNSMRLAPVAPLLKMSWKMYDWAGTNFMKENLDGFSINQRTVPIISDFIFLAHKVGKAEFKKDSIDFIDSNSVVTSDGTKIEADIILKCVGFEGQMDVFKQVYPPFEAVNWIWVNKKTNFVLDQDPEFGMTTKATKLMTSGSTLLLTKIAARVFAMSLINPSKFEQIIPVLPTSQNAGYNISYHMGSLSKLLVANKDIKKFILRTSAKKSKSMIEKGGNGKYLEFCKREWKQQCEALGVEEVEYPFVFPWWILLWENWQQLVNRFFLAAFPEQNIVRDIQPEDVEWSFISAES
MGSDKIHHHHHHMQRIMVIGGPGSGKSTLGRKLGARLGLPVVHMDPIYWLGDWVERDKAEAMRMAKEVADGSQWVFEGNHFASMAYRAERADLIVFLDMPRVLRMWRILWRSLRYYGRTRPDMGPNCPERFNRAFLKFCWTYDREGRLRALGFVDDWRDRRRVRILTSRRQVAAFLVEIDRQ
MGSDKIHHHHHHMQSIMPEADYSFLSMDPTMNANTGNKDSLATPSHTPQLQAFCDVVESRRSVRRFTDAPIPDDVLADCLRLAMLAPNSSNLQPWEFYVIDDADKRKRAVKNCMNQNAAKTSARLIAVVARTDVWHDHAKKILREYPDMPVPKKVKDYYNKVVALDFLRGPANVVSVAKWSAIQVVRRIKGPIKSPYYTFEDTKNWATNNTALAAGNLMLALRAHGFDSCPMGGFDEPAMKRLLKLSNHHHIVMMIGAGERADNGVYNTQFRFEQDQFVHYV
MGSDKIHHHHHHMQVRRFGRTNWNVSEIGYGMWGASGWKGSDDSQSEQSLDLAVSKGVNFFDTAWGYGEGHSEQLLGKLVKRHQSKKIYVATKIPPMNFKWPSKKSYTIGECFPVSHIKEYTETSLKNLGVEKIDLMQFHVWEDAWATDESWQRAVEDLQKEGKVDAFGISVNRWEPENCLETLKTGLIDSVQVIYNIFDQAPEDALLPLCKKLDIAVIARVPFDEGTLTGTITKDTTFEEGDWRASYFVPENLISSAEHADRLRPILPSGMTMAEMALRFILMNDDIATTIPGMRKERNVLANTGVSDGKKLSLDLYNELKKHRWDREPTSWSQ
MGSDKIHHHHHHMQWETVIGLEIHAQLSTRSKIFSGASVAYGAEPNSQACAVDIALPGVLPVLNRQAIEYAIRFGLAIDATINSPSVFARKNYFYPDLPKGYQISQLEHPIVEGGHVAIQTGDQEKTIRLTRAHLEEDAGKSTHEEFHGMTGIDLNRAGTGLLEIVSEPDMRSSAEAVAYAKVLHSLVRWIGICDGNMQEGSFRCDANVSVRPAGSEALGTRCEIKNLNSFRFLERAIDYEVARQIDILESGGSITQETRLYDADRDETRTMRSKEDAHDYRYFPDPDLLPVIIPQEWIDQIREKLPELPKDKRNRYIQDFGLQTYDANILTAARELADYFEQMVSVLPGQSKLCANWIMGEVSARLNKEGLEIARSPISPEQLAGLLLRITDGTISGKIAKDVFDSMWQSNGDSADTIIDAKNLRQISDDSEIEKWVDDVLAANPQQVADYRAGKEKAFNSLVGQVMKTSKGKANPAQVNSVLKKRLTE
